# B1: human ZNFX1 (NFX1-type zinc finger-containing 1), full-length, 2xStrep-tagged, wild type (enzyme, UniProt Q9P2E3 1-1918, looked up)
# chain: MEERRPHLDARPRNSHTNHRGPVDGELPPRARNQANNPPANALRGGASHPGRHPRANNHPAAYWQREERFRAMGRNPHQGRRNQEGHASDEARDQRHDQENDTRWRNGNQDCRNRRPPWSNDNFQQWRTPHQKPTEQPQQAKKLGYKFLESLLQKDPSEVVITLATSLGLKELLSHSSMKSNFLELICQVLRKACSSKMDRQSVLHVLGILKNSKFLKVCLPAYVVGMITEPIPDIRNQYPEHISNIISLLQDLVSVFPASSVQETSMLVSLLPTSLNALRASGVDIEEETEKNLEKVQTIIEHLQEKRREGTLRVDTYTLVQPEAEDHVESYRTMPIYPTYNEVHLDERPFLRPNIISGKYDSTAIYLDTHFRLLREDFVRPLREGILELLQSFEDQGLRKRKFDDIRIYFDTRIITPMCSSSGIVYKVQFDTKPLKFVRWQNSKRLLYGSLVCMSKDNFETFLFATVSNREQEDLCRGIVQLCFNEQSQQLLAEVQPSDSFLMVETTAYFEAYRHVLEGLQEVQEEDVPFQRNIVECNSHVKEPRYLLMGGRYDFTPLIENPSATGEFLRNVEGLRHPRINVLDPGQWPSKEALKLDDSQMEALQFALTRELAIIQGPPGTGKTYVGLKIVQALLTNESVWQISLQKFPILVVCYTNHALDQFLEGIYNCQKTSIVRVGGRSNSEILKQFTLRELRNKREFRRNLPMHLRRAYMSIMTQMKESEQELHEGAKTLECTMRGVLREQYLQKYISPQHWESLMNGPVQDSEWICFQHWKHSMMLEWLGLGVGSFTQSVSPAGPENTAQAEGDEEEEGEEESSLIEIAEEADLIQADRVIEEEEVVRPQRRKKEESGADQELAKMLLAMRLDHCGTGTAAGQEQATGEWQTQRNQKKKMKKRVKDELRKLNTMTAAEANEIEDVWQLDLSSRWQLYRLWLQLYQADTRRKILSYERQYRTSAERMAELRLQEDLHILKDAQVVGMTTTGAAKYRQILQKVEPRIVIVEEAAEVLEAHTIATLSKACQHLILIGDHQQLRPSANVYDLAKNFNLEVSLFERLVKVNIPFVRLNYQHRMCPEIARLLTPHIYQDLENHPSVLKYEKIKGVSSNLFFVEHNFPEQEIQEGKSHQNQHEAHFVVELCKYFLCQEYLPSQITILTTYTGQLFCLRKLMPAKTFAGVRVHVVDKYQGEENDIILLSLVRSNQEGKVGFLQISNRICVALSRAKKGMYCIGNMQMLAKVPLWSKIIHTLRENNQIGPMLRLCCQNHPETHTLVSKASDFQKVPEGGCSLPCEFRLGCGHVCTRACHPYDSSHKEFQCMKPCQKVICQEGHRCPLVCFQECQPCQVKVPKTIPRCGHEQMVPCSVPESDFCCQEPCSKSLRCGHRCSHPCGEDCVQLCSEMVTIKLKCGHSQPVKCGHVEGLLYGGLLVKCTTKCGTILDCGHPCPGSCHSCFEGRFHERCQQPCKRLLICSHKCQEPCIGECPPCQRTCQNRCVHSQCKKKCGELCSPCVEPCVWRCQHYQCTKLCSEPCNRPPCYVPCTKLLVCGHPCIGLCGEPCPKKCRICHMDEVTQIFFGFEDEPDARFVQLEDCSHIFEVQALDRYMNEQKDDEVAIRLKVCPICQVPIRKNLRYGTSIKQRLEEIEIIKEKIQGSAGEIATSQERLKALLERKSLLHQLLPEDFLMLKEKLAQKNLSVKDLGLVENYISFYDHLASLWDSLKKMHVLEEKRVRTRLEQVHEWLAKKRLSFTSQELSDLRSEIQRLTYLVNLLTRYKIAEKKVKDSIAVEVYSVQNILEKTCKFTQEDEQLVQEKMEALKATLPCSGLGISEEERVQIVSAIGYPRGHWFKCRNGHIYVIGDCGGAMERGTCPDCKEVIGGTNHTLERSNQLASEMDGAQHAAWSDTANNLMNFEEIQGMM
# Biological target: the molecule itself
# Experiment: cryo-EM structure
protein,measurement,value
B1,stoichiometry N,2

# Reference: doi:10.1101/2025.10.14.682297 (bioRxiv, 2025)
